Consider 27 molecules from paper PMC10786891, “Massively parallel profiling of RNA-targeting CRISPR-Cas13d”.

Sequences and labels used below:
T1: EsCas13d, nuclease-dead (Eubacterium siraeum, UniProt B0MS50, R295A;H300A;R849A;H854A)
T1 sequence: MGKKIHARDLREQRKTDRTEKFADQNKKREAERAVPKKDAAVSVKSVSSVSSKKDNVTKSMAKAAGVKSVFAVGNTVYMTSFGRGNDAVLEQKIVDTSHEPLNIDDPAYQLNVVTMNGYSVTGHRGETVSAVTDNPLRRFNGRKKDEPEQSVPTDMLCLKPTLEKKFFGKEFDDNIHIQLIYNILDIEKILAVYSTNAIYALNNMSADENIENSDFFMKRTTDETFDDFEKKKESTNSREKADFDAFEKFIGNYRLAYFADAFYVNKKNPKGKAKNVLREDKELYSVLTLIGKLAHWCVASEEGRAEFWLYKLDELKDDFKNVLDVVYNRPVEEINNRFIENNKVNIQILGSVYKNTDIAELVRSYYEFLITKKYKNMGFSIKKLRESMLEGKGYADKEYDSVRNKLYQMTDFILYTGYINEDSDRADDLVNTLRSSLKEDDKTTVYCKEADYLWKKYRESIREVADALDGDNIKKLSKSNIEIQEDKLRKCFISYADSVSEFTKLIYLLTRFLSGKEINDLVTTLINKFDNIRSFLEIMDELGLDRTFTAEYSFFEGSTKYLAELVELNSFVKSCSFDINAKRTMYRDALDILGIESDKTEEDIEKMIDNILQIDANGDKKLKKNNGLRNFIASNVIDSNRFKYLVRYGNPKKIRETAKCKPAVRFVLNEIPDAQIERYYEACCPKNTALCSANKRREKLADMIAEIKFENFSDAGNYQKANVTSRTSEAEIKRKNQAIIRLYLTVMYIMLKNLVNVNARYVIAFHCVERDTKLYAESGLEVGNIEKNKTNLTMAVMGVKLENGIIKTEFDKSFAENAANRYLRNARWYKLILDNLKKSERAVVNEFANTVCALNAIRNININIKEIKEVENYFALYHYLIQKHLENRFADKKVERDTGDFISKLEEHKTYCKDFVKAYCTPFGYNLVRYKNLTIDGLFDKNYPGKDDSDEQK

B1: target 1 A1G,A14G (mixed)
RNA 1: CACCCGUGCAAAAAUGCAGGGGUCUAAAACUGAGCGGAUAACCUCUCUAUGG
RNA 2: GGGAAUGGAUCCACAUCUACGAAUUCGUACCAUAGAGGGGUUAUCCGCUCGCCGAGAUCGGAAGAGCACACGU
B2: target 1 insA 3' of 17 (mixed)
RNA 1: CACCCGUGCAAAAAUGCAGGGGUCUAAAACUGAGCGGAUAACCUCUCUAUGG
RNA 2: GGGAAUGGAUCCACAUCUACGAAUUCGUACCAUAGAAGAGGUUAUCCGCUCACCGAGAUCGGAAGAGCACACGU
B3: target 2 MT 5'PFS UGA 3'PFS UUA (mixed)
RNA 1: CACCCGUGCAAAAUUGCAGGGGUCUAAAACCUUCUCCAAAUUGUUUCAUCCU
RNA 2: GGGAAUGGAUCCACAUCUACGAAUUCUGAAGGAUGAAACAAUUUGGAGAAGUUAAGAUCGGAAGAGCACACGU
B4: target 2 MT 5'PFS ACU 3'PFS UCG (mixed)
RNA 1: CACCCGUGCAAAAUUGCAGGGGUCUAAAACCUUCUCCAAAUUGUUUCAUCCU
RNA 2: GGGAAUGGAUCCACAUCUACGAAUUCACUAGGAUGAAACAAUUUGGAGAAGUCGAGAUCGGAAGAGCACACGU
B5: target 2 MT 5'PFS GGC 3'PFS AAC (mixed)
RNA 1: CACCCGUGCAAAAUUGCAGGGGUCUAAAACCUUCUCCAAAUUGUUUCAUCCU
RNA 2: GGGAAUGGAUCCACAUCUACGAAUUCGGCAGGAUGAAACAAUUUGGAGAAGAACAGAUCGGAAGAGCACACGU
B6: target 2 MT 5'PFS GCU 3'PFS CCA (mixed)
RNA 1: CACCCGUGCAAAAUUGCAGGGGUCUAAAACCUUCUCCAAAUUGUUUCAUCCU
RNA 2: GGGAAUGGAUCCACAUCUACGAAUUCGCUAGGAUGAAACAAUUUGGAGAAGCCAAGAUCGGAAGAGCACACGU
B7: target 2 MT 5'PFS GGC 3'PFS AAG (mixed)
RNA 1: CACCCGUGCAAAAUUGCAGGGGUCUAAAACCUUCUCCAAAUUGUUUCAUCCU
RNA 2: GGGAAUGGAUCCACAUCUACGAAUUCGGCAGGAUGAAACAAUUUGGAGAAGAAGAGAUCGGAAGAGCACACGU
B8: target 2 MT 5'PFS UGA 3'PFS UUC (mixed)
RNA 1: CACCCGUGCAAAAUUGCAGGGGUCUAAAACCUUCUCCAAAUUGUUUCAUCCU
RNA 2: GGGAAUGGAUCCACAUCUACGAAUUCUGAAGGAUGAAACAAUUUGGAGAAGUUCAGAUCGGAAGAGCACACGU
B9: target 2 MT 5'PFS AAG 3'PFS UAA (mixed)
RNA 1: CACCCGUGCAAAAUUGCAGGGGUCUAAAACCUUCUCCAAAUUGUUUCAUCCU
RNA 2: GGGAAUGGAUCCACAUCUACGAAUUCAAGAGGAUGAAACAAUUUGGAGAAGUAAAGAUCGGAAGAGCACACGU
B10: target 2 MT 5'PFS CUU 3'PFS AUC (mixed)
RNA 1: CACCCGUGCAAAAUUGCAGGGGUCUAAAACCUUCUCCAAAUUGUUUCAUCCU
RNA 2: GGGAAUGGAUCCACAUCUACGAAUUCCUUAGGAUGAAACAAUUUGGAGAAGAUCAGAUCGGAAGAGCACACGU
B11: target 2 MT 5'PFS GCU 3'PFS AGA (mixed)
RNA 1: CACCCGUGCAAAAUUGCAGGGGUCUAAAACCUUCUCCAAAUUGUUUCAUCCU
RNA 2: GGGAAUGGAUCCACAUCUACGAAUUCGCUAGGAUGAAACAAUUUGGAGAAGAGAAGAUCGGAAGAGCACACGU
B12: target 2 MT 5'PFS CAA 3'PFS AGC (mixed)
RNA 1: CACCCGUGCAAAAUUGCAGGGGUCUAAAACCUUCUCCAAAUUGUUUCAUCCU
RNA 2: GGGAAUGGAUCCACAUCUACGAAUUCCAAAGGAUGAAACAAUUUGGAGAAGAGCAGAUCGGAAGAGCACACGU
B13: target 2 MT 5'PFS UAC 3'PFS UUU (mixed)
RNA 1: CACCCGUGCAAAAUUGCAGGGGUCUAAAACCUUCUCCAAAUUGUUUCAUCCU
RNA 2: GGGAAUGGAUCCACAUCUACGAAUUCUACAGGAUGAAACAAUUUGGAGAAGUUUAGAUCGGAAGAGCACACGU
B14: target 2 MT 5'PFS ACU 3'PFS UCC (mixed)
RNA 1: CACCCGUGCAAAAUUGCAGGGGUCUAAAACCUUCUCCAAAUUGUUUCAUCCU
RNA 2: GGGAAUGGAUCCACAUCUACGAAUUCACUAGGAUGAAACAAUUUGGAGAAGUCCAGAUCGGAAGAGCACACGU
B15: target 2 MT 5'PFS GUA 3'PFS UAC (mixed)
RNA 1: CACCCGUGCAAAAUUGCAGGGGUCUAAAACCUUCUCCAAAUUGUUUCAUCCU
RNA 2: GGGAAUGGAUCCACAUCUACGAAUUCGUAAGGAUGAAACAAUUUGGAGAAGUACAGAUCGGAAGAGCACACGU
B16: target 2 MT 5'PFS UAC 3'PFS UUA (mixed)
RNA 1: CACCCGUGCAAAAUUGCAGGGGUCUAAAACCUUCUCCAAAUUGUUUCAUCCU
RNA 2: GGGAAUGGAUCCACAUCUACGAAUUCUACAGGAUGAAACAAUUUGGAGAAGUUAAGAUCGGAAGAGCACACGU
B17: target 2 MT 5'PFS GUA 3'PFS GAC (mixed)
RNA 1: CACCCGUGCAAAAUUGCAGGGGUCUAAAACCUUCUCCAAAUUGUUUCAUCCU
RNA 2: GGGAAUGGAUCCACAUCUACGAAUUCGUAAGGAUGAAACAAUUUGGAGAAGGACAGAUCGGAAGAGCACACGU
B18: target 2 MT 5'PFS GCU 3'PFS AGG (mixed)
RNA 1: CACCCGUGCAAAAUUGCAGGGGUCUAAAACCUUCUCCAAAUUGUUUCAUCCU
RNA 2: GGGAAUGGAUCCACAUCUACGAAUUCGCUAGGAUGAAACAAUUUGGAGAAGAGGAGAUCGGAAGAGCACACGU
B19: target 2 MT 5'PFS GGC 3'PFS AAA (mixed)
RNA 1: CACCCGUGCAAAAUUGCAGGGGUCUAAAACCUUCUCCAAAUUGUUUCAUCCU
RNA 2: GGGAAUGGAUCCACAUCUACGAAUUCGGCAGGAUGAAACAAUUUGGAGAAGAAAAGAUCGGAAGAGCACACGU
B20: target 2 MT 5'PFS AAG 3'PFS UAU (mixed)
RNA 1: CACCCGUGCAAAAUUGCAGGGGUCUAAAACCUUCUCCAAAUUGUUUCAUCCU
RNA 2: GGGAAUGGAUCCACAUCUACGAAUUCAAGAGGAUGAAACAAUUUGGAGAAGUAUAGAUCGGAAGAGCACACGU
B21: target 2 MT 5'PFS ACU 3'PFS UCA (mixed)
RNA 1: CACCCGUGCAAAAUUGCAGGGGUCUAAAACCUUCUCCAAAUUGUUUCAUCCU
RNA 2: GGGAAUGGAUCCACAUCUACGAAUUCACUAGGAUGAAACAAUUUGGAGAAGUCAAGAUCGGAAGAGCACACGU
B22: target 2 MT 5'PFS GGC 3'PFS AAU (mixed)
RNA 1: CACCCGUGCAAAAUUGCAGGGGUCUAAAACCUUCUCCAAAUUGUUUCAUCCU
RNA 2: GGGAAUGGAUCCACAUCUACGAAUUCGGCAGGAUGAAACAAUUUGGAGAAGAAUAGAUCGGAAGAGCACACGU
B23: target 2 MT 5'PFS AGG 3'PFS AUU (mixed)
RNA 1: CACCCGUGCAAAAUUGCAGGGGUCUAAAACCUUCUCCAAAUUGUUUCAUCCU
RNA 2: GGGAAUGGAUCCACAUCUACGAAUUCAGGAGGAUGAAACAAUUUGGAGAAGAUUAGAUCGGAAGAGCACACGU
B24: target 2 MT 5'PFS GUA 3'PFS GAA (mixed)
RNA 1: CACCCGUGCAAAAUUGCAGGGGUCUAAAACCUUCUCCAAAUUGUUUCAUCCU
RNA 2: GGGAAUGGAUCCACAUCUACGAAUUCGUAAGGAUGAAACAAUUUGGAGAAGGAAAGAUCGGAAGAGCACACGU
B25: target 2 MT 5'PFS GUA 3'PFS UAA (mixed)
RNA 1: CACCCGUGCAAAAUUGCAGGGGUCUAAAACCUUCUCCAAAUUGUUUCAUCCU
RNA 2: GGGAAUGGAUCCACAUCUACGAAUUCGUAAGGAUGAAACAAUUUGGAGAAGUAAAGAUCGGAAGAGCACACGU
B26: target 2 MT 5'PFS UAC 3'PFS UUG (mixed)
RNA 1: CACCCGUGCAAAAUUGCAGGGGUCUAAAACCUUCUCCAAAUUGUUUCAUCCU
RNA 2: GGGAAUGGAUCCACAUCUACGAAUUCUACAGGAUGAAACAAUUUGGAGAAGUUGAGAUCGGAAGAGCACACGU
B27: target 2 MT 5'PFS GUA 3'PFS UAG (mixed)
RNA 1: CACCCGUGCAAAAUUGCAGGGGUCUAAAACCUUCUCCAAAUUGUUUCAUCCU
RNA 2: GGGAAUGGAUCCACAUCUACGAAUUCGUAAGGAUGAAACAAUUUGGAGAAGUAGAGAUCGGAAGAGCACACGU

For the data set, the target named is T1, EsCas13d, nuclease-dead. As to the kind of experiment: crRNA (strand 1, pre-loaded); Mg2+; 40 mM Tris-HCl pH 7.5, 150 mM NaCl, 6 mM MgCl2, 1 mM DTT, 0.1% Tween-20, 0.2 mg/ml BSA; 25 C; 10 min per concentration, then washed. The settings on record: tags: His6-TwinStrep-SUMO cleaved; N-terminal SNAP kept (SNAP-Surface 488); label: 3' end held by stalled T7 RNA polymerase.
By Kd is commonly meant the constant that tells how readily two partners part at equilibrium. A low value points to tighter binding. B1: the Kd worked out at 14.3 ± 0.8 nM. With B2, the Kd turned out to be 11.8 ± 1.3 nM. The molecule B3 came in with a Kd of 10.7 ± 1.9 nM. With B4 the figure was 6.7 ± 1 nM; with B5, 11.7 ± 1.4 nM. In turn, B6 yielded a Kd of 25 ± 12 nM. B7 yielded a Kd of 13.1 ± 2 nM. B8: the equilibrium dissociation constant (Kd) amounted to 26 ± 7 nM. With B9 the figure was 3.7 ± 0.7 nM. Molecule B10 yielded a Kd of 5.1 ± 0.9 nM. B11: binding was characterised by a dissociation constant (Kd) of 7.3 ± 2.1 nM. The value for B12 was 7.6 ± 2.2 nM. B13 showed a Kd of 11.9 ± 1.9 nM. B14 had a Kd of 14.3 ± 3.5 nM.

Molecule B15 registered a Kd of 7.7 ± 0.7 nM. Molecule B16 returned a Kd of 11.1 ± 2.3 nM. With B17 the figure was 7.9 ± 1.4 nM; with B18, 7.9 ± 0.8 nM; with B19, 8.9 ± 1.5 nM.

Take B20: the Kd stood at 3.6 ± 0.6 nM. Turning to B21, binding was put at a Kd of 7.3 ± 1.7 nM. With B22, binding was put at a Kd of 8.5 ± 0.9 nM. On to B23, for which the Kd was 4.8 ± 0.8 nM. Turning to B24, binding was put at a Kd of 6.7 ± 2.4 nM. Consider B25, for which the affinity, expressed as Kd, was 5.5 ± 0.6 nM. The molecule B26 returned a Kd of 8 ± 1.4 nM. Take B27: the Kd is 11 ± 1.8 nM.
